This is an account of results in article PMC10786891, “Massively parallel profiling of RNA-targeting CRISPR-Cas13d”.

Changes are numbered by the printed parent chain. Names may count otherwise.

B1: target 1 insA 3' of 12,insC 3' of 5 (mixed)
RNA 1: CACCCGUGCAAAAAUGCAGGGGUCUAAAACUGAGCGGAUAACCUCUCUAUGG
RNA 2: GGGAAUGGAUCCACAUCUACGAAUUCGUACCAUAGAGAGGAUUAUCCGCCUCACCGAGAUCGGAAGAGCACACGU
B2: target 1 C6G,G12U (mixed)
RNA 1: B1 RNA 1
RNA 2: GGGAAUGGAUCCACAUCUACGAAUUCGUACCAUAGAGAGUUUAUCGGCUCACCGAGAUCGGAAGAGCACACGU
B3: target 1 C2G,C4G (mixed)
RNA 1: B1 RNA 1
RNA 2: B2 RNA 2 with U40G, G46C, C48G, C50G
B4: target 1 C4U,G12A (mixed)
RNA 1: B1 RNA 1
RNA 2: B2 RNA 2 with U40A, G46C, C48U
B5: target 1 insA 3' of 15,insU 3' of 9 (mixed)
RNA 1: B1 RNA 1
RNA 2: B1 RNA 2 with G39A, A41G, C46U, G48C, C49G
B6: target 1 insC 3' of 18,insU 3' of 15 (mixed)
RNA 1: B1 RNA 1
RNA 2: GGGAAUGGAUCCACAUCUACGAAUUCGUACCAUACGAGUAGGUUAUCCGCUCACCGAGAUCGGAAGAGCACACGU
B7: target 1 C6U,A9U (mixed)
RNA 1: B1 RNA 1
RNA 2: B2 RNA 2 with U40G, A43U, G46U
B8: target 1 insA 3' of 21,insC 3' of 10 (mixed)
RNA 1: B1 RNA 1
RNA 2: B6 RNA 2 with U33A, A34U, C35A, U39A, A40G, G42U, U44C
B9: target 1 insC 3' of 20,insA 3' of 3 (mixed)
RNA 1: B1 RNA 1
RNA 2: GGGAAUGGAUCCACAUCUACGAAUUCGUACCACUAGAGAGGUUAUCCGCUACACCGAGAUCGGAAGAGCACACGU
B10: target 1 C4A,C6G (mixed)
RNA 1: B1 RNA 1
RNA 2: B2 RNA 2 with U40G, C48A
B11: target 1 insU 3' of 20,insC 3' of 14 (mixed)
RNA 1: B1 RNA 1
RNA 2: B6 RNA 2 with A34U, C35A, U39A, A40C
B12: target 1 insG 3' of 8,insG 3' of 6 (mixed)
RNA 1: B1 RNA 1
RNA 2: B1 RNA 2 with A41U, U43A, A44U, U45G, C49G
B13: target 1 insA 3' of 22,insG 3' of 2 (mixed)
RNA 1: B1 RNA 1
RNA 2: B9 RNA 2 with C31A, A32C, C33A, A51C, C52G
B14: target 1 G12U,A16G (mixed)
RNA 1: B1 RNA 1
RNA 2: B2 RNA 2 with A36G, G46C
B15: target 1 insU 3' of 9,insG 3' of 3 (mixed)
RNA 1: B1 RNA 1
RNA 2: B1 RNA 2 with A41U, U43A, A44U, C50U, U51G
B16: target 1 U8G,U10A (mixed)
RNA 1: B1 RNA 1
RNA 2: B2 RNA 2 with U40G, U42A, U44G, G46C
B17: target 1 insU 3' of 22,insG 3' of 18 (mixed)
RNA 1: B1 RNA 1
RNA 2: B6 RNA 2 with C31U, A32C, U33A, A34U, C35A, A37G, G38A, U39G
B18: target 1 G15A,C22U (mixed)
RNA 1: B1 RNA 1
RNA 2: B2 RNA 2 with C30U, G37A, U40G, G46C
B19: target 1 insA 3' of 7,insU 3' of 6 (mixed)
RNA 1: B1 RNA 1
RNA 2: B1 RNA 2 with A41U, U43A, A44U, U45C, C46A, G48U, C49G
B20: target 1 G5C,U10A (mixed)
RNA 1: B1 RNA 1
RNA 2: B2 RNA 2 with U40G, U42A, G46C, G47C
B21: target 1 insU 3' of 18,insA 3' of 8 (mixed)
RNA 1: B1 RNA 1
RNA 2: B6 RNA 2 with C35U, U39A, A40G, G42U, U44A, A45U, U46A
B22: target 1 del3,del9 (mixed)
RNA 1: B1 RNA 1
RNA 2: GGGAAUGGAUCCACAUCUACGAAUUCGUACCAUAGAGAGGUUUCCGCCACCGAGAUCGGAAGAGCACACGU
B23: target 1 insU 3' of 12,insC 3' of 11 (mixed)
RNA 1: B1 RNA 1
RNA 2: B1 RNA 2 with A41U, U43C, A44U, U45A, C46U, G48C, C49G
B24: target 1 insG 3' of 3,insU 3' of 1 (mixed)
RNA 1: B1 RNA 1
RNA 2: GGGAAUGGAUCCACAUCUACGAAUUCGUACCAUAGAGAGGUUAUCCGCUGCAUCCGAGAUCGGAAGAGCACACGU
B25: target 1 del7,del8 (mixed)
RNA 1: B1 RNA 1
RNA 2: B22 RNA 2 with U43A, C45G, G46C, C47U
B26: target 1 G5U,A9C (mixed)
RNA 1: B1 RNA 1
RNA 2: B2 RNA 2 with U40G, A43C, G46C, G47U
B27: target 1 insU 3' of 12,insU 3' of 2 (mixed)
RNA 1: B1 RNA 1
RNA 2: B1 RNA 2 with A41U, C50U, U51C, C52U
B28: target 1 G5C,G17C (mixed)
RNA 1: B1 RNA 1
RNA 2: B2 RNA 2 with G35C, U40G, G46C, G47C
B29: target 1 insU 3' of 13,insU 3' of 12 (mixed)
RNA 1: B1 RNA 1
RNA 2: B6 RNA 2 with C35G, G36A, A37G, G38A, U39G, A40U, G42U
B30: target 1 insA 3' of 17,insC 3' of 10 (mixed)
RNA 1: B1 RNA 1
RNA 2: B6 RNA 2 with C35G, G36A, U39A, A40G, G42U, U44C
B31: target 1 C7U,A14G (mixed)
RNA 1: B1 RNA 1
RNA 2: B2 RNA 2 with A38G, U40G, C45U, G46C

This data set concerns the target T1, EsCas13d, nuclease-dead (Eubacterium siraeum, UniProt B0MS50, R295A;H300A;R849A;H854A).
T1 sequence: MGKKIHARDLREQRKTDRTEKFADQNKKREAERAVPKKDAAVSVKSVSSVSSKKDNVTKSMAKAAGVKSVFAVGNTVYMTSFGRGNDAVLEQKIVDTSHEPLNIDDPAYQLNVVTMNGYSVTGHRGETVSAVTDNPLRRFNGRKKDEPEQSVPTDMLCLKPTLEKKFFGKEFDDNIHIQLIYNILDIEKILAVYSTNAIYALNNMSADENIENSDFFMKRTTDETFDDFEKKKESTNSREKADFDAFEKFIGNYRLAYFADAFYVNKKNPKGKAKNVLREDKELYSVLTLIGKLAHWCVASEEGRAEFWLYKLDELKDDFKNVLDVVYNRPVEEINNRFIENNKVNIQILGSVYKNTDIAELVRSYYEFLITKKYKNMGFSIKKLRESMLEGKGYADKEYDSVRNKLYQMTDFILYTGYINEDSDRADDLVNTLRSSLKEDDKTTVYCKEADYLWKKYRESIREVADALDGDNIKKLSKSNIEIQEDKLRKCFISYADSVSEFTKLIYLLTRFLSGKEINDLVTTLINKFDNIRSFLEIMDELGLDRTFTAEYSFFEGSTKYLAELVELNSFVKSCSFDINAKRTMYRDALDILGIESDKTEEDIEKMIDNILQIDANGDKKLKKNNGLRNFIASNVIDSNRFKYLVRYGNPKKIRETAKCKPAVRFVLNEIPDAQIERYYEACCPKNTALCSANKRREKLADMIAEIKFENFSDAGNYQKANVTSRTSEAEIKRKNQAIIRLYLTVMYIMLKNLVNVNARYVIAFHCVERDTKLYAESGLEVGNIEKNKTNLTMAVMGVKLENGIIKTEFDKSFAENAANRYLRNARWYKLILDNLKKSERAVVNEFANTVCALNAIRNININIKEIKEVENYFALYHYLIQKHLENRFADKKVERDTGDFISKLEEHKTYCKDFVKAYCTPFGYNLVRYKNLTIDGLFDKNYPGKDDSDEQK
The experiment in a line: crRNA (strand 1, pre-loaded); Mg2+; 40 mM Tris-HCl pH 7.5, 150 mM NaCl, 6 mM MgCl2, 1 mM DTT, 0.1% Tween-20, 0.2 mg/ml BSA; 25 C; 10 min per concentration, then washed. Conditions: tags: His6-TwinStrep-SUMO cleaved; N-terminal SNAP kept (SNAP-Surface 488); label: 3' end held by stalled T7 RNA polymerase.
Broadly, the Kd is a measure of binding affinity in units of concentration. With B1, the dissociation constant Kd turned out to be 23.6 ± 2.1 nM.

B2 registered a Kd of 13.7 ± 1.2 nM.

In the case of B3, the Kd worked out at 7 ± 0.4 nM.

The molecule B4 came in with a Kd of 23.7 ± 3 nM.

The molecule B5 gave a Kd of 24.4 ± 3.1 nM.

The molecule B6 displayed a dissociation constant Kd of 82 ± 33 nM.

In turn, B7 had a Kd of 8.2 ± 0.4 nM.

In the case of B8, the Kd was found to be 57 ± 8 nM.

In turn, B9 had a Kd of 8.76 ± 0.32 nM.

Take B10: the Kd came out at 5.4 ± 0.4 nM.

Take B11: binding was put at a Kd of 51 ± 16 nM.

Turning to B12, the Kd came to 7.05 ± 0.26 nM.

In the case of B13, the Kd amounted to 12.2 ± 0.9 nM.

Take B14: the Kd is 43 ± 5 nM.

The molecule B15 displayed a Kd of 12.7 ± 0.6 nM.

Molecule B16 had a Kd of 19.7 ± 1.2 nM.

With B17, the Kd came to 84 ± 17 nM.

With B18, the Kd amounted to 17.7 ± 2.4 nM.

For the molecule B19, the dissociation constant (Kd) came out at 7.6 ± 0.5 nM.

Molecule B20 showed a Kd of 11.8 ± 0.6 nM.

Molecule B21 gave a Kd of 55 ± 4 nM.

On to B22, for which the Kd worked out at 40 ± 5 nM.

On to B23, for which the Kd was 25 ± 4 nM.

In the case of B24, the Kd turned out to be 9.04 ± 0.35 nM.

As for B25, the affinity, expressed as Kd, was 10.6 ± 0.7 nM.

For the molecule B26, the affinity, expressed as Kd, was 60 ± 6 nM.

In turn, B27 gave a Kd of 8.3 ± 0.8 nM.

For the molecule B28, the Kd came out at 48 ± 6 nM.

Take B29: binding was put at a Kd of 11.8 ± 1.3 nM.

Regarding B30, the equilibrium dissociation constant (Kd) stood at 27 ± 6 nM.

Regarding B31, the Kd was 16.5 ± 1.6 nM.
